Test results taken from patent US5707800, “Retinoic acid response elements and assays employing same” (The Salk Institute for Biological Studies).

Key:
[1] = tested on: RAR (subtype not stated); experiment: cell_activity; conditions: CV-1 cells; RAR blocks RXR transactivation at equal expression vector amount; no RA activation by RAR itself
[2] = biological target: RXR alpha (retinoid X receptor alpha) (Homo sapiens, UniProt P19793 P19793:1-462); experiment: cell_activity; CAT induction by retinoic acid in F9 cells, CRBPII promoter reporter pCRBPII-CAT; conditions: tags: expression plasmid; chain copies: 4; label: 32P
Method: Chem. 262:2425–2467 (1987)], was introduced into a plasmid which would regulate expression of the reporter, bacterial chloramphenicol acetyl transferase (see FIG. 1). The resultant reporter plasmid, pCRBPII-CAT, was tested for retinoic acid (RA) responsiveness after transfection into mouse embryonal teratocarcinoma F9 cells. F9 cells endogenously express high amounts of retinoic acid receptor (RAR), and can efficiently transactivate (>100-fold) a reporter plasmid containing the well characterized RA-inducible promoter of the RARβ gene [see de The et al., in Nature 343:177–180 (1990) and Sucov, et al., in Proc. Natl. Acad. Sci. U.S.A. 87:5392–5396 (1990)]. However, pCRBPII-CAT conferred no basal or RA-inducible CAT activity in these cells. To eliminate the possibility that regulation of the CRBPII promoter requires an augmented concentration of RAR, as is the case for the laminin retinoic acid response element [RARE; see Vasias, et al., in Proc. Natl Acad. Sci. U.S.A. 86:9099–9103 (1989], or that its regulation is isoform specific, expression vectors bearing all three subtypes of RAR were each separately cotransfected with pCRBPII-CAT into F9 cells.
To assess the exact sequences within the CRBPII promoter that function as an RXR response element (RXRE), a series of 5'-deletion mutants were constructed starting with the parent reporter plasmid pCRBPII-CAT (see FIG. 2). […]

RXR alpha (retinoid X receptor alpha), sequence (P19793 whole entry, one chain of several): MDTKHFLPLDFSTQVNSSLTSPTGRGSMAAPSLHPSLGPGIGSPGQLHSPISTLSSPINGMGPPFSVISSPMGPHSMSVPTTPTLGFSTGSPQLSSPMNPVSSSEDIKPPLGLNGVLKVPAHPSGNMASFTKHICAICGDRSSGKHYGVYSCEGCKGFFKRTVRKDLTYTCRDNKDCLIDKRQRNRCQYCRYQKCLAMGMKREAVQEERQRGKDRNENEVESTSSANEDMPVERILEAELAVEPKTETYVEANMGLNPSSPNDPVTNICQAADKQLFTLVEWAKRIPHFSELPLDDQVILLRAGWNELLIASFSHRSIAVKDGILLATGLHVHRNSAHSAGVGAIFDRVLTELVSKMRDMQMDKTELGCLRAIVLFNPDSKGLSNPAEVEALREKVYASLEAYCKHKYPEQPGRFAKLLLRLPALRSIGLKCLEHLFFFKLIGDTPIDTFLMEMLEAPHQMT

GCTGTCACAGGTCACAGGTCACAGGTCACAGTTCA (double strand) [CRBPII-RXRE]
activity (% suppression of RXR activation) [1]: 90

B1: CRBPII-RXRE (dsDNA)
DNA 1: GCTGTCACAGGTCACAGGTCACAGGTCACAGTTCA
DNA 2: TGAACTGTGACCTGTGACCTGTGACCTGTGACAGC
activity [2]: 100 fold
